Reference: patent publication US10766952B2, “Methods for reducing migraine frequency in a subject in need thereof” (Beth Israel Deaconess Medical Center, Inc., priority 2017, dated 2020)
Numbering of substitutions follows the chain as printed. Names and notes keep the numbering of the source.

T1: human α-CGRP (Homo sapiens, UniProt P06881)
T1 construct: 1-37 (WT); purchased; host or cells: synthetic peptide
T1 sequence (P06881 83-119 limits assumed): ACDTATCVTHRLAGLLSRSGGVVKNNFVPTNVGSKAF

T2: rat α-CGRP (Rattus norvegicus, UniProt P01256)
T2 construct: rat α (1-37); host or cells: synthetic peptide
T2 sequence (P01256 83-119 limits assumed): T1 sequence (P06881 83-119 limits assumed) with A1S, D3N, N25D, K35E

B1: M46: G1 variant: L1 R28N; L2 G50A,L56T; H2 E54K,A57N,S58E,H61F; HC-FW3 L99T,A100V (antibody, V domains shown)
VH: EVQLVESGGGLVQPGGSLRLSCAASGFTFSNYWISWVRQAPGKGLEWVAEIRSKSDNEATFYAEAVKGRFTISRDNAKNSLYLQMNSLRAEDTAVYYCTVYFDYGLAIQNYWGQGTLVTVSS
VL: EIVLTQSPATLSLSPGERATLSCKASKNVTTYVSWYQQKPGQAPRLLIYAASNRYTGIPARFSGSGSGTDFTLTISSLEPEDFAVYYCSQSYNYPYTFGQGTKLEIK
B2: M47: G1 variant: L1 R28N; L2 G50A,L56T; H2 E54K,A57N,S58G; HC-FW3 L99T,A100V (antibody, V domains shown)
VH: B1 VH with E58G, F61H
VL: B1 VL
B3: M48: G1 variant: L1 R28N; L2 G50A,L56T; H2 E54K,A57N,S58L; HC-FW3 L99T,A100V (antibody, V domains shown)
VH: B1 VH with E58L, F61H
VL: B1 VL
B4: M49: G1 variant: L1 R28N; L2 G50A,L56T; H2 E54K,A57N,S58Y,H61F; HC-FW3 L99T,A100V (antibody, V domains shown)
VH: B1 VH with E58Y
VL: B1 VL
B5: M50: G1 variant: L1 R28N; L2 G50A,L56T; H2 E54K,A57R; HC-FW3 L99T,A100V (antibody, V domains shown)
VH: B1 VH with N57R, E58S, F61H
VL: B1 VL
B6: M51: G1 variant: L1 R28N; L2 L56I; H2 E54K,A57G; HC-FW3 L99T,A100V (antibody, V domains shown)
VH: B1 VH with N57G, E58S, F61H
VL: B1 VL with A50G, T56I
B7: M52: G1 variant: L1 R28N; L2 L56I; H2 E54K,A57N,S58A; HC-FW3 L99T,A100V (antibody, V domains shown)
VH: B1 VH with E58A, F61H
VL: B1 VL with A50G, T56I
B8: M53: G1 variant: L1 R28N; L2 L56I; H2 E54K,A57N,S58G; HC-FW3 L99T,A100V (antibody, V domains shown)
VH: B1 VH with E58G, F61H
VL: B1 VL with A50G, T56I
B9: M54: G1 variant: L1 R28N,T30A; L2 G50A; H2 E54K,A57N,S58P; HC-FW3 L99T,A100V (antibody, V domains shown)
VH: B1 VH with E58P, F61H
VL: B1 VL with T30A, T56L
B10: M55: G1 variant: L1 R28N,T30A; L2 L56S; H2 E54K,A57N,S58E,E64D; HC-FW3 L99T,A100V (antibody, V domains shown)
VH: B1 VH with F61H, E64D
VL: B1 VL with T30A, A50G, T56S

Each molecule was assayed against T1, human α-CGRP (assay: Biacore affinity of antibody G1 Fab and variants to human α-CGRP). Settings: 37° C., Fab, screening mode unless underlined.
Format: binding
Description: (§1) Biacore assay for affinity determination. […] All Biacore assays were conducted in HBS-EP running buffer (10 mM HEPES pH 7.4, 150 mM NaCl, 3 mM EDTA, 0.005% v/v polysorbate P20). CGRP surfaces were prepared by diluting the N-biotinylated CGRP to a concentration of less than 0.001 mg/mL into HBS-EP buffer and injecting it across the SA sensor chip using variable contact times. Low capacity surfaces, corresponding to capture levels <50 response units (RU) were used for high-resolution kinetic studies, whereas high capacity surfaces (about 800 RU of captured CGRP) were used for concentration studies, screening, and solution affinity determinations. […] Samples were typically injected for lminute at 100 μL/min and dissociation times of at least 10 minutes were allowed. After each binding cycle, surfaces were regenerated with 25 mM NaOH in 25% v/v ethanol, which was tolerated over hundreds of cycles. An entire titration series (typically generated in duplicate) was fit globally to a 1:1 Langmuir binding model using the BlAevaluation program. This returned a unique pair of association and dissociation kinetic rate constants (respectively, kon and koff) for each binding interaction, whose ratio gave the equilibrium dissociation constant (KD=koff/[…]).
(§2) High-resolution analysis of binding interactions with extremely slow offrates. […] The protocol described above was used with the following modifications. The association rate constant (kon) was determined by injecting a 2-fold titration series (in duplicate) spanning 550 nM-1 nM for 30 seconds at 100 μL/min and allowing only a 30 second dissociation phase. The dissociation rate constant (koff) was determined by injecting three concentrations (high, medium, and low) of the same titration series in duplicate for 30 seconds and allowing a 2-hour dissociation phase. The affinity (KD) of each interaction was obtained by combining the kon and koff values obtained in both types of experiments, as shown in Table 4.
(§3) The binding affinities of Fab fragments were determined by Biacore by flowing them across CGRPs on a SA chip.

Molecule	α-human koff
B1	0.000539 s⁻¹
B2	0.000332 s⁻¹
B3	0.000842 s⁻¹
B4	0.000595 s⁻¹
B5	0.000406 s⁻¹
B6	0.000131 s⁻¹
B7	0.000281 s⁻¹
B8	0.000374 s⁻¹
B9	0.00179 s⁻¹
B10	0.000478 s⁻¹

The molecules below were run against T2, rat α-CGRP (assay: Biacore affinity of antibody G1 Fab and variants to rat α-CGRP). Settings: 37° C., Fab, screening mode unless underlined.
Format: binding
Description: as §1, §2, §3

Molecule	α-rat koff
B1	0.00294 s⁻¹
B2	0.00823 s⁻¹
B3	0.0343 s⁻¹
B4	0.0148 s⁻¹
B5	0.0053 s⁻¹
B6	0.00118 s⁻¹
B7	0.00229 s⁻¹
B8	0.00191 s⁻¹
B9	0.00216 s⁻¹
B10	0.00585 s⁻¹
